Where two headings read alike, the source gives them in different places.
T1: human MAdCAM (on CHO cells) (human, UniProt Q13477)
T1 chain: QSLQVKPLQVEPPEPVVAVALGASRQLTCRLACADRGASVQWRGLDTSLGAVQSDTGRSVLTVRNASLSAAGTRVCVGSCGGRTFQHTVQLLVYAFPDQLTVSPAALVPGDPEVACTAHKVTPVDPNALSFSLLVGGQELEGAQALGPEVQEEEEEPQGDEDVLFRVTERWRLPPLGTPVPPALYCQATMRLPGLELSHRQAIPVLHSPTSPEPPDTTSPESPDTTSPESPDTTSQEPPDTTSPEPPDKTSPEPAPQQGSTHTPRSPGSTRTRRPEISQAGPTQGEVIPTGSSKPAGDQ

T2: cynomolgus/human MAdCAM chimera (on CHO cells) (cynomolgus/human)
T2 chain: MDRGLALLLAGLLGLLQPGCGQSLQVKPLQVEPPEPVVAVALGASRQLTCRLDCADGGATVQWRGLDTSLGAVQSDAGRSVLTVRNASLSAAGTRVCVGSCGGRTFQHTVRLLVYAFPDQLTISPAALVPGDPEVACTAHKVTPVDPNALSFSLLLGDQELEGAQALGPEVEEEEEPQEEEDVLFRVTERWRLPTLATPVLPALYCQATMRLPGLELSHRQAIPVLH

T3: mouse MAdCAM (mouse, UniProt Q61826)
T3 chain: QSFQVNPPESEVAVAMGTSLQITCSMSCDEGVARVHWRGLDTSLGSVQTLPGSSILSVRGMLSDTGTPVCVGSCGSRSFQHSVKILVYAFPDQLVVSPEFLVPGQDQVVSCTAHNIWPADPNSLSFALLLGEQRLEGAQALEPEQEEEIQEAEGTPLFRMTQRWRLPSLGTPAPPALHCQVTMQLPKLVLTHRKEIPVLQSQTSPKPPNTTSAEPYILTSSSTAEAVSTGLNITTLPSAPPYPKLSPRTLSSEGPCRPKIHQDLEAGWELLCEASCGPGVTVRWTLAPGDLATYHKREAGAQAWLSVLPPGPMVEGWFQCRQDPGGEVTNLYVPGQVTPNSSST


Experiments:
[1] = target: T1, human MAdCAM (on CHO cells); assay: competition, JY cell adhesion to CHO
[2] = target: T2, cynomolgus/human MAdCAM chimera (on CHO …); assay: competition, JY cell adhesion to CHO
MAdCAM-IgG1 Fc fusion [3] = target: MAdCAM-IgG1 Fc fusion (human); assay: competition, JY cell adhesion
Sequence of MAdCAM-IgG1 Fc fusion (human) (chain, as listed by the source): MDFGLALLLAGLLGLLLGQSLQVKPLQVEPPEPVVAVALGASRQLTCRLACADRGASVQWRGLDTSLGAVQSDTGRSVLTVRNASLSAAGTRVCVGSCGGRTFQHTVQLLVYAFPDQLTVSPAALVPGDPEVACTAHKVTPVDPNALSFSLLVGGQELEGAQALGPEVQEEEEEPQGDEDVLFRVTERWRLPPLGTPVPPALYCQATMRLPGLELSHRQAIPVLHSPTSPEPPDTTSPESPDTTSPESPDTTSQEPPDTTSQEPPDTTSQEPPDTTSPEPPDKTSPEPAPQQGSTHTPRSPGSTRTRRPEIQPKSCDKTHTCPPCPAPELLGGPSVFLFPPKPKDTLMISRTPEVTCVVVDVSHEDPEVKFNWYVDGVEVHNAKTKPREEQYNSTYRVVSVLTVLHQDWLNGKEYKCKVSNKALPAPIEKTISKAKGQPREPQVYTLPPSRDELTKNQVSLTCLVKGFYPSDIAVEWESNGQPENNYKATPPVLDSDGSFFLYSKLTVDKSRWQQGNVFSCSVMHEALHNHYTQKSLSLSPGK

MAdCAM-IgG1 Fc fusion [4] = target: MAdCAM-IgG1 Fc fusion (human); assay: competition, JY cell adhesion; remark: listed apart in the source
MAdCAM-IgG1 Fc fusion [5] = target: MAdCAM-IgG1 Fc fusion (human); assay: SPR, protocol 2
MAdCAM-IgG1 Fc fusion [6] = target: MAdCAM-IgG1 Fc fusion (human); assay: SPR, protocol 1
mouse MAdCAM = target: T3, mouse MAdCAM; assay: ELISA
[7] = target: T2, cynomolgus/human MAdCAM chimera (on CHO …); assay: FACS

Binder	IC50 [1]	IC50 [2]	IC50 (MAdCAM-IgG1 Fc fusion [3])	IC50 (MAdCAM-IgG1 Fc fusion [4])	Kd (MAdCAM-IgG1 Fc fusion [5])	Kd (MAdCAM-IgG1 Fc fusion [6])	binding result (mouse MAdCAM)	binding result [7]
6.34.2 (antibody, V domains shown) VH: QVQLVESGGGVVQPGRSLRLSCAASGFTFSSYGMHWVRQAPGKGLEWVAVISNDGNNKYYADSVKGRFTISRDNSKNTLYLQMNSLSAEDTAVYYCARDSTAITYYYYGMDVWGQGTTVTVSS VL: MDMRVPAQLLGLLLLWLRGARCDIQMTQSPSSLSASVGDRVTITCRASQNISSYLNWFQQKPGKAPKLLIYAASGLKRGVPSRFSGSGSGTDFTLTIRTLQPDDFATYSCHQSYSLPFTFGPGTKVDIKR	0.285 µg/mL	0.47 µg/mL	0.013 µg/mL	0.013 µg/mL	< 0.015 nM	0.0158 nM	no binding	
6.22.2 (antibody, V domains shown) VH: QVQLVESGGGVVQPGRSLRLSCAASGHTFSSDGMHWVRQAPGKGLEWVAIIWYDGSNKYYADSVKGRFTISRDNSKNTLYLQMNSLRAEDTAVYYCARDPGYYYGMDVWGQGTTVTVSS VL: EIVLTQSPDFQSVTPKEKVTITCRASQRIGSSLHWYQQKPDQSPKLLIKYASQSFSGVPSRFSGSGSGTNFTLTINGLEAEDAATYYCHQSGRLPLTFGGGTKVEIKR	0.573 µg/mL	0.83 µg/mL						
6.14.2 (antibody, V domains shown) VH: EVQLLESGGGLVQPGGSLRLSCAASGLTFNNSAMTWVRQAPGKGLEWVSTTSGSGGTTYYADSVKGRFTISRDSPKNTLYLQMNSLRAEDTAVYYCAARGYSYGTTPYEYWGQGTLVTVSS VL: MDMRVPAQLLGLLLLWLRGARCDIQMTQSPSSLSASVGDRVTITCRASRSISSYLNWYQQKPGKAPKVLIFFVSSLQSGVPSRFSGSGSGTDFTLTISSLQPEDFATYYCQQNYIPPITFGQGTRLEIRR	0.291 µg/mL	0.53 µg/mL		0.011 µg/mL	< 0.01 nM	0.0077 nM	no binding	
1.8.2 (antibody, V domains shown) VH: EVQLVESGGGLVKPGGSLRLSCVVSGFTFTNAWMIWVRQAPGKGLEWVGRIKRKTDGGTTDYAAPVKGRFTISRDDSKNTLYLQMNSLKTEDTAVYYCTTGGVAEDYWGQGTLVTVSS VL: not shown	0.424 µg/mL			0.027 µg/mL		0.035 nM		
1.7.2 (antibody, V domains shown) VH: EVQLVESGGGLVKPGGSLRLSCVASGFTFTNAWMIWVRQAPGKGLEWVGRIKRKTDGGTTDYAAPVKGRFTISRDDSKNTLYLQMNSLKTEDTAVYYCTTGGVAEDYWGQGTLVTVSS VL: not shown	0.502 µg/mL			0.03 µg/mL		0.042 nM		

Continued, values first:

IC50 [1]	IC50 [2]	IC50 (MAdCAM-IgG1 Fc fusion [3])	IC50 (MAdCAM-IgG1 Fc fusion [4])	Kd (MAdCAM-IgG1 Fc fusion [5])	Kd (MAdCAM-IgG1 Fc fusion [6])	binding result (mouse MAdCAM)	binding result [7]	Binder
		0.049 µg/mL						6.34.2-mod (antibody, V domains shown) VH: QVQLVESGGGVVQPGRSLRLSCAASGFTFSSYGMHWVRQAPGKGLEWVAVISNDGNNKYYADSVKGRFTISRDNSKNTLYLQMNSLRAEDTAVYYCARDSTAITYYYYGMDVWGQGTTVTVSS VL: MDMRVPAQLLGLLLLWLRGARCDIQMTQSPSSLSASVGDRVTITCRASQSISSYLNWYQQKPGKAPKLLIYAASGLKRGVPSRFSGSGSGTDFTLTISSLQPEDFATYYCHQSYSLPFTFGPGTKVDIKR
0.44 µg/mL	0.83 µg/mL		0.02 µg/mL	0.0325 nM	0.1 nM	no binding		9.8.2 (antibody, V domains shown) VH: QVQLVESGGGVVQPGRSLRLSCAASGFTFSSYGMHWVRQAPGKGLEWVAVIWYDGSNEYYADSVKGRFTISRDNSKNTLYLQMNSLRAEDTAVYYCARGAYHFAYWGQGTLVTVSS VL: DMRVPAQLLGLLLLWLSVAGARCDIQMTQSPSSLSASVGDRVTITCQASQDISNYLNWYQQKPGKAPKLLIYDASNLETGVPSRFSGSGSGTDFTFTISSLQPEDIATYSCQHSDNLSITFGQGTRLEIKR
0.298 µg/mL	0.75 µg/mL							6.67.1 (antibody, V domains shown) VH: QVQLQESGPGLVKPSETLSLTCTVSGDSISSNYWSWIRQPAGKGLEWIGRIYTSGGTNSNPSLRGRVTILADTSKNQFSLKLSSVTAADTAVYYCARDRITIIRGLIPSFFDYWGQGTLVTVSS VL: not shown
0.574 µg/mL	0.96 µg/mL							7.26.4 (antibody, V domains shown) VH: QVQLVQSGAEVKKPGASVKVSCEASGYTFTSYGIDWVRQAPGQGLEWMGWISVYSGNTNYAQKLQGRVTMSTDTSTSTAYMELRSLRSDDTAVYYCAREGSSSSGDYYYGMDVWGQGTTVTVSS VL: DIVMTQTPLSLSVTPGQPASISCKSNQSLLYSDGKTYLFWYLQKPGQPPQLLIYEVSNRFSGVPDRFSGSGSGTDFTLKISRVEAEDVGVYYCMQSIQLPWTFGQGTKVEIKR
0.52 µg/mL	0.64 µg/mL				0.0067 nM			6.77.1 (antibody, V domains shown) VH: EVQLVESGGGLVKPGGSLRLSCAASGFTFSSYSMNWVRQAPGKGLEWVSSISSSSSYIYYADSVKGRFTISRDNAKNSLYLQMNSLRAEDTAVYYCARDGYSSGWSYYYYYGMDVWGQGTTVTVSS VL: DIVMTQTPLSLSVTPGQPASISCNSSQSLLLSDGKTYLNWYLQKPGQPPQLLIYEVSNRFSGVPDRFSGSGSGTDFTLKISRVEAEDVGVYSCMQSIQLMCSFGQGTKLEIKR
	0.72 µg/mL		0.019 µg/mL	0.0048 nM	0.0015 nM			7.16.6 (antibody, V domains shown) VH: QVQLVQSGAEVKKPGASVKVSCKASGYTFTSYGINWVRQAPGQGLEWMGWISVYSGNTNYAQKVQGRVTMTADTSTSTAYMDLRSLRSDDTAVYYCAREGSSSSGDYYYGMDVWGQGTTVTVSS VL: DIVMTQTPLSLSVTPGQPASISCKSSQSLLHTDGTTYLYWYLQKPGQPPQLLIYEVSNRFSGVPDRFSGSGSGTDFTLKISRVEAEDVGIYYCMQNIQLPWTFGQGTKVEIKR
0.387 µg/mL	0.62 µg/mL							7.20.5 (antibody, V domains shown) VH: QVQLQESGPGLVKPSETLSLTCTVSGSSISSYHWNWIRQPAGKGLEWIGRIYTSGSTNYNPSLKSRVTMSLDTSKNQFSLKLSSVTAADTAVYYCAREGVRYYYASGSYYYGLDVWGQGTTVTVSS VL: not shown
0.369 µg/mL			0.02 µg/mL		0.093 nM	no binding	no binding	6.73.2 (antibody, V domains shown) VH: EVQLLESGGDLVQPGGSLRLSCAASGFTFRSYAMNWVRQAPGKGLEWVSVISGRGGTTYYADSVKGRFTISRDNSKNTLYLQMNSLRAEDAAVYYCAKIAVAGEGLYYYYGMDVWGQGTTVTVSS VL: MDMRVPAQLLGLLLLWLRGARCDIQMTQSPSSLSASVGDRVTFTCRASQNITNYLNWYQQKPGKAPKLLIYAASSLPRGVPSRFRGSGSGTDFTLTISSLQPEDFATYYCQQSYSNPPECGFGQGTTLDIKR
